Source: the supplement of paper PMC12764529
± gives the half width of the 95% confidence interval.

Tests used:
[1] = folding stability dG unfold from trypsin proteolysis; higher = more stable
In short: (§1)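 How resistant each design was to proteolysis was captured as K50, inferred by Bayesian fitting of sequencing counts. Unfolding free energy was then derived relative to a sequence-predicted unfolded-state K50 and a shared folded-state K50, per protease or combined. Digestion used trypsin and chymotrypsin at 11 threefold-diluted concentrations plus a no-protease condition, on mini-proteins under 80 residues without cysteine in a PA-tagged cDNA display construct. Designs were kept only when AlphaFold2 dimer inter-PAE was above 15.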

[2] = folding stability dG unfold from chymotrypsin proteolysis; higher = more stable
In short: as §1

[3] = folding stability dG unfold (combined trypsin and chymotrypsin); higher = more stable
In short: as §1

Row | Sequence | folding stability dG unfold [1] [kcal/mol] | folding stability dG unfold [2] [kcal/mol] | folding stability dG unfold [3] [kcal/mol]
1 | SRKFLNDPNIDKVEPTIVIPMSPEERKELAQNLANGIYNYLREHGWPLPPNIEIKIIPFPSPEQMKKMMKSA [r9_204_TrROS] | 0.6 ± 0.15 | 1.09 ± 0.17 | 0.901 ± 0.13
2 | SAGGSAGGSGIKIIMEFIFPDDGYIFKIEIDIKPNPENGEPVIEMKIEMYPIDPGQPPDLKDLSAGGSAGGS [r12_700_TrROS] | 2.48 ± 0.11 | 3.45 ± 0.071 | 3.26 ± 0.2
3 | SAGMIDYIEIKPEKLPNGKYKVTITIYDSSTGTTTTYEKEMTPEEAKELAEKIKESNPDKPVKFGNLESAGG [r19_317_JUSTAS] | 2.06 ± 0.093 | 1.78 ± 0.089 | 1.93 ± 0.2
4 | SAGGAVLTTEDPEKISLTFYSPEGAVLGSEEIEVEPPEIVLTNVPPEEAAAIKKENPDVPISLNPALGSAGG [r13_235_JUSTAS] | 0.956 ± 0.03 | 0.456 ± 0.029 | 0.685 ± 0.071
5 | SAGGSASLTVVYPGGETRTFDVSAVSPEFLRAHPDVTVTLPGGEERRLAGDTELSPAGPHTITVPASAGGSA [r15_733_JUSTAS] | 2.39 ± 0.11 | 1.8 ± 0.083 | 2.06 ± 0.088
6 | SAGGGGSTTQPQQVELPGDRTATVTLHTHGDTPTATITLSEKESELGTVTVPVASTAEVAAAVAALASAGGS [r16_55_JUSTAS] | 1.26 ± 0.028 | 0.683 ± 0.029 | 0.973 ± 0.097
7 | SADLKIDDVTVQHYNDYLYVSAEITFPNGWEITVHWMIDPNGKIIDMMIEIRPPPPPVDEEDQEKAQKKSAG [r14_171_TrROS] | 2.47 ± 0.22 | 3.35 ± 0.14 | 3.05 ± 0.25
8 | SAGGSAGGSAGGWRTVWIRMPPGQSPEQAVDEIKDHFPPGEPIEVEYHPNDGFFRVKIPSAGGSAGGSAGGS [r10_163_TrROS] | 0.654 ± 0.08 | 0.546 ± 0.22 | 0.668 ± 0.077
9 | SAGGSAGGSANGWVFMIHFNIEQEPVPAEELGMPPGDPGYEDMYVIKIKSISFFWVPAGDFSAGGSAGGSAG [r3_488_TrROS] | 3.27 ± 0.09 | 4.72 ± 0.12 | 4.38 ± 0.085
10 | SETVTVTVTVTVTLYRRRPDGKWVPIAELTVTVTRTVEKEDEEEARRAVREEVEDELRKLAEELGVEIEPSA [r9_356_TrROS_Hall] | 3.94 ± 0.095 | 5.79 ± 0.12 | 5.6 ± 0.15
11 | SAEVRARLEYDPVSGDLVLEVERPLPNGDVIRARVDLVNPVLRVEHLPVRDGVPLPRETELDLPADALVSAG [r14_64_TrMRF] | 0.394 ± 0.084 | 0.855 ± 0.039 | 0.766 ± 0.067
12 | SAGGSAGGEELLATATPVTVGDEVYYRFTIRNPDGTPIGDRLVPASVLSGYSPDTVITLPPDLLSAGGSAGG [r6_34_JUSTAS] | 1.29 ± 0.024 | 0.784 ± 0.16 | 1.04 ± 0.094
13 | MTVELETTDIEELLARIEEAAAAGKNVTVTAKPEEFEKIRAEGFKIDEILEVKPVPGDDTVVTLINISPEGS [r1_173_JUSTAS] | 1.11 ± 0.038 | 0.699 ± 0.083 | 0.897 ± 0.085
14 | SAGSMELLEKKEGKLPDGRVYTTETLRNPANGLYEVKTFVFEPGGNPLAEERITYEGDKLVSSETIYLGSAG [r14_828_JUSTAS] | 0.199 ± 0.04 | 0.842 ± 0.075 | 0.594 ± 0.077
15 | SAGGSAGGSKTLVIEEDGELYKVRITNKNGKEIEIVMSADEIKKLPPNAKVEVEKIKLPEKKPSAGGSAGGS [r12_419_TrROS_Hall] | 1.18 ± 0.028 | 1.52 ± 0.067 | 1.36 ± 0.062
16 | SAGGSAGGSAGGSPPMPMRIDEVEYDPPNGRYEITVEPDNGNPQTITMPPGNIDEAYIVSAGGSAGGSAGGS [r4_51_TrROS] | 1.47 ± 0.12 | 0.978 ± 0.042 | 1.15 ± 0.16
17 | SAGGSEVTLKVKVRRKVFKDGKLVAEEEVEKEVRVKLPPPPKIELSPELRKALEENDLEKIKKALESAGGSA [r2_196_TrROS_Hall] | 1.43 ± 0.066 | 1.74 ± 0.053 | 1.62 ± 0.11
18 | SAGGSAGKTKIEIRPLPDGSYLVLVTSPDGSKSEFIADGPDIPLPELLKKLNLPPDIEVVNAELPESAGGSA [r15_167_TrMRF] | 2.98 ± 0.12 | 3.05 ± 0.056 | 2.98 ± 0.13
19 | SAGGSAGGSFVDPDGYKVIEFPIPMDDPGRIKEEVMDQFNLKDVKVEWEPTPGWYWVSIIVEPSAGGSAGGS [r12_929_TrROS] | 0.74 ± 0.093 | 0.815 ± 0.16 | 0.832 ± 0.14
20 | SAGGSVSDIVNELKKKGIKVTSIEKTEDGTYVITTELPNGVKKEYKYSTSDPKNVAALKAAIPEELVSAGGS [r16_821_JUSTAS] | 1.44 ± 0.038 | 1.19 ± 0.072 | 1.36 ± 0.066
21 | SAGLFITVEANPNNGTMRITLYRMEPRKDGDGPKMDIEPIAEIEVPMESPEEARDKAKDKAKNLLDKFNSAG [r5_956_TrROS] | 1.06 ± 0.064 | 1.85 ± 0.14 | 1.58 ± 0.11

Row | Sequence | folding stability dG unfold [1] [kcal/mol] | folding stability dG unfold [2] [kcal/mol] | folding stability dG unfold [3] [kcal/mol]
22 | SKMKIKIEVEKVEDGYLKITITAESKEEAEKAIKELAKKLFGIEEVKVEYDKETKKITVEIIIRPPGEKVSA [r9_1120_TrROS_Hall] | 2 ± 0.17 | 3.61 ± 0.18 | 2.95 ± 0.35
23 | SWKIEIPVLVKVDPGETMDEMKDQVVEIADMIAKYMQKQGGPIEVDVDVTPDPEEGYIFVTVEIEVPPGASA [r9_1161_TrROS] | 1.03 ± 0.13 | 2.9 ± 0.13 | 2.39 ± 0.29
24 | SAGGSAGGMPIPPEVTEISFSKLPNGTYRLTITTKDGKTLTDVTFPPDLDPETAVEAAIATVAASAGGSAGG [r6_436_JUSTAS] | 1.45 ± 0.028 | 1.48 ± 0.06 | 1.5 ± 0.053
25 | SAGGSAGGMKIEIIEEKDGYIVLRVSPEDLEALEKLGFEIVSVEEVEGELYIVIKVSPEALKALSAGGSAGG [r6_108_TrROS_Hall] | 3.58 ± 0.095 | 3.5 ± 0.037 | 3.55 ± 0.066
26 | SAGGSAGGSKKKVVIEVVIKVKKEDEEKIKKALEKELEKLGFKVKEVKVERTKNYVKVTVVLESAGGSAGGS [r12_731_TrROS_Hall] | 2.7 ± 0.17 | 3.89 ± 0.2 | 3.63 ± 0.28
27 | SAMTPEEIKKKVEELLKELAKELNAEVTSVKVDKETKTITVTVKVKLPNGETKTLTLKFTIDKDGKITFSAG [r14_183_TrROS_Hall] | 3.67 ± 0.12 | 4.5 ± 0.079 | 4.32 ± 0.14
28 | SAGGSAITLEDLKNAEIVKPEVMPFPDNGMWMPTWKLRDPGNGKEFVFTFMYNPGNGEPQWSLVPVSAGGSA [r15_170_TrROS] | 1.16 ± 0.053 | 1.36 ± 0.1 | 1.2 ± 0.15
29 | SAGGMVIIIPSPDNTVLIIEIEGDKAKIIIINPEDGSAVIIELPIEPNGDGSFILKITSIEVLEDADISAGG [r13_556_TrMRF] | 2.97 ± 0.2 | 3.34 ± 0.13 | 3.27 ± 0.26
30 | SAGMPPVKVEIEVYPVRVEGELLYIAKIVRPDGSVLVIAFKPEELIEAIKKEFPDIEEIKFSPFETPPESAG [r5_25_TrMRF] | 3.3 ± 0.095 | 3.579 ± 0.022 | 3.48 ± 0.054
31 | SSEKVELAKKYLKEKGIPIKEFKEITPTGITILAPNGKWITISVKPGDLNEITINPKKSSDGGYENDIPYSA [r9_809_JUSTAS] | 0.215 ± 0.049 | 0.92 ± 0.09 | 0.669 ± 0.088
32 | SAGKKIHITLTEDELREIAEALGLEPEDMTAEELAARLREEFPDVEVTIEKPPVEEREREERELAEEEKSAG [r5_264_TrROS_Hall] | 1.76 ± 0.064 | 0.984 ± 0.068 | 1.3 ± 0.14
33 | SAGGMVLVRFDSLEEAREHAELLEELGYEVELLPTEDYVLLLVRPLPLPPPTPEELAEALRNPGSALASAGG [r13_8_TrMRF] | 2.33 ± 0.062 | 2.671 ± 0.014 | 2.53 ± 0.066
34 | SYWIRITINGQTIMFPAEDADKLLGELQSNGWRIKITDIEPDPDDDWIMFKINIRPPKPPPPPPPDPDGKSA [r9_448_TrROS] | 2 ± 0.11 | 3.47 ± 0.041 | 3.17 ± 0.34
35 | SAGMATTTELPNGFLTTYEDGTTSFIPAEPPEVPVTTVPVTSPEEAAAAVAAAGLSVEVVTADSVTAPASAG [r5_328_JUSTAS] | 2.06 ± 0.091 | 1.2 ± 0.027 | 1.63 ± 0.07
36 | SAGGSAGGSAMKKLEYTIPVPPGTLSPEKVKELFKKKYPEYENKEIKVEFSPDGTVKITVIESAGGSAGGSA [r18_65_JUSTAS] | 2.38 ± 0.051 | 3.17 ± 0.037 | 2.92 ± 0.066
37 | SAGGMVLVERDGDRLVLLIPFPADEPPTPEEVEAEARAILRELGPDVRIRSVHRLPDGGYLVEAEVDSAGGS [r8_103_TrMRF] | 3.17 ± 0.065 | 3.69 ± 0.038 | 3.56 ± 0.041
38 | SMEEFAKSLPDVKIETKPLSPDEIEITVYIPSDPEKAKKVEEIVKKLAEEIEKKTGIKVKVTFKPVPPEESA [r9_1099_JUSTAS] | 3.24 ± 0.24 | 3.32 ± 0.21 | 3.59 ± 0.68
39 | SAGGGPNTYVKVTLPLPPNKADVVEEIAKLFPNVKVEVTTTPENGTLPVTFYFPSPDGSPDAKVSIFSAGGS [r8_267_TrMRF] | 0.407 ± 0.15 | 1.11 ± 0.31 | 0.754 ± 0.15
40 | SAGYFIMVKFEFPDGGPQEFMIWIPPDENPEKLTKEEAKEVAKSIANSNQDQGGFEVKDVEIMPPDDMSAGG [r19_27_TrROS] | 0.611 ± 0.1 | 2.03 ± 0.088 | 1.58 ± 0.15
41 | SAGMYMVTITWEYPNGWTFEFMVFVRGPNPEEAREQVDEAAREIFEQRDHPIKDVKVDVQPMPPGQEISAGG [r19_335_TrROS] | 1.96 ± 0.064 | 3.18 ± 0.054 | 2.84 ± 0.23
42 | SAGGSEFEIIEVKDGTVVIRNKKTNELITVKVKIEVKPPPPVVVKKPGEEVTVKEGKKVTVLKEGEKKSAGG [r13_322_TrROS_Hall] | -0.188 ± 0.18 | 0.916 ± 0.13 | 0.498 ± 0.18
